US20250327097A1, “ORGANISMS PRODUCING LESS CROTONIC ACID” (Global Bioenergies, priority 2021, published 2025)

B1: K391I-L432W-L434M (protein)
chain: MFLKSLREQINLLKRQGDLRIINRPVDSYLEAAAIIRRSTETKAPVPLMTNIKGYPGCSIVGGLAALSSNPEYPLSRVAMSLGLSTTASAQSIVQYLIDGLKKTPYLPVEIDSNSAPCKQNILRGEDASLAHFPIPQVHQHDGNRYVNTWGVFIVESPDGQWCNWSIQRVQYLNDRQMIALVFPSQHISDIWEEWVKIGKPMPYALVQGCEPIVPYIAGLPLLERNVNEAEYIGALYGKGIEVVKCETHDLRVPASSEVVIEGYFAITREGVEGPFGEFAGYIPNENSLQPILSITAISWQDDPIWPVVAEGKPVDEYHTCSGIGDAAAIQNVLLTANLPVSFVWVPLYSACHLMIVSINRHWRQTHPDLTSEQLTKKVGDVIHQTRNSIILPKIVVLDDDVDPADTESLLWALATRIHPERKRYFYESCIWPMLSCYSEEERHNRKGKRVIIDALLPENHGAISSFDYAYPDDIKQRVLMHWETDFSHD
B2: R387A-L432F-L434W-S436A (protein)
chain: MFLKSLREQINLLKRQGDLRIINRPVDSYLEAAAIIRRSTETKAPVPLMTNIKGYPGCSIVGGLAALSSNPEYPLSRVAMSLGLSTTASAQSIVQYLIDGLKKTPYLPVEIDSNSAPCKQNILRGEDASLAHFPIPQVHQHDGNRYVNTWGVFIVESPDGQWCNWSIQRVQYLNDRQMIALVFPSQHISDIWEEWVKIGKPMPYALVQGCEPIVPYIAGLPLLERNVNEAEYIGALYGKGIEVVKCETHDLRVPASSEVVIEGYFAITREGVEGPFGEFAGYIPNENSLQPILSITAISWQDDPIWPVVAEGKPVDEYHTCSGIGDAAAIQNVLLTANLPVSFVWVPLYSACHLMIVSINRHWRQTHPDLTSEQLTKKVGDVIHQTANSIKLPKIVVLDDDVDPADTESLLWALATRIHPERKRYFYESCIFPWLACYSEEERHNRKGKRVIIDALLPENHGAISSFDYAYPDDIKQRVLMHWETDFSHD
B3: L432F-L434W-S436A (protein)
chain: MFLKSLREQINLLKRQGDLRIINRPVDSYLEAAAIIRRSTETKAPVPLMTNIKGYPGCSIVGGLAALSSNPEYPLSRVAMSLGLSTTASAQSIVQYLIDGLKKTPYLPVEIDSNSAPCKQNILRGEDASLAHFPIPQVHQHDGNRYVNTWGVFIVESPDGQWCNWSIQRVQYLNDRQMIALVFPSQHISDIWEEWVKIGKPMPYALVQGCEPIVPYIAGLPLLERNVNEAEYIGALYGKGIEVVKCETHDLRVPASSEVVIEGYFAITREGVEGPFGEFAGYIPNENSLQPILSITAISWQDDPIWPVVAEGKPVDEYHTCSGIGDAAAIQNVLLTANLPVSFVWVPLYSACHLMIVSINRHWRQTHPDLTSEQLTKKVGDVIHQTRNSIKLPKIVVLDDDVDPADTESLLWALATRIHPERKRYFYESCIFPWLACYSEEERHNRKGKRVIIDALLPENHGAISSFDYAYPDDIKQRVLMHWETDFSHD
B4: N388M-L432F-L434W (protein)
chain: MFLKSLREQINLLKRQGDLRIINRPVDSYLEAAAIIRRSTETKAPVPLMTNIKGYPGCSIVGGLAALSSNPEYPLSRVAMSLGLSTTASAQSIVQYLIDGLKKTPYLPVEIDSNSAPCKQNILRGEDASLAHFPIPQVHQHDGNRYVNTWGVFIVESPDGQWCNWSIQRVQYLNDRQMIALVFPSQHISDIWEEWVKIGKPMPYALVQGCEPIVPYIAGLPLLERNVNEAEYIGALYGKGIEVVKCETHDLRVPASSEVVIEGYFAITREGVEGPFGEFAGYIPNENSLQPILSITAISWQDDPIWPVVAEGKPVDEYHTCSGIGDAAAIQNVLLTANLPVSFVWVPLYSACHLMIVSINRHWRQTHPDLTSEQLTKKVGDVIHQTRMSIKLPKIVVLDDDVDPADTESLLWALATRIHPERKRYFYESCIFPWLSCYSEEERHNRKGKRVIIDALLPENHGAISSFDYAYPDDIKQRVLMHWETDFSHD

What follows are molecules tested on 3-methylcrotonic acid.
Type: biochemical, Yersinia frederiksenii
Design: key: “+” representing a low increase in activity; “++++” representing a high increase in activity

Question: For B1, which “Activity relative to WT” value is on record?
Answer: +

Question: With B2 as the molecule, how does the “Activity relative to WT” value read?
Answer: +

Question: B3 was tested. Which “Activity relative to WT” value did it give?
Answer: +

Question: Which “Activity relative to WT” value does the source give for B4 here?
Answer: +
